Source: US20260258115A1 (MAPP BIOPHARMACEUTICAL, published 2026)

Legend:
[1] = biological target: RSV postfusion F (postF), F ΔFP trimer, subtype A (Respiratory Syncytial Virus, subtype A, UniProt P03420 26-513); experiment: BLI, IgG (Table 9A)
[2] = biological target: RSV F on RSV subtype A virus (RSV-A2) (Respiratory Syncytial Virus, subtype A, …, UniProt P03420 26-574); experiment: cell-based or functional assay
[3] = biological target: RSV prefusion F (preF), DS-Cav1 stabilized trimer, subtype A (Respiratory Syncytial Virus, subtype A, UniProt P03420 26-513); experiment: BLI, apparent IgG KD (Table 9A)
RSV F on RSV-A2 virus = RSV F on RSV-A2 virus (Respiratory syncytial virus, RSV-A2, UniProt P03420 26-574); experiment: cell-based or functional assay
[4] = biological target: RSV postfusion F (postF), F ΔFP (Respiratory syncytial virus, UniProt P03420 26-513); experiment: BLI, IgG on anti-human IgG sensor
[5] = biological target: RSV prefusion F (preF), DS-Cav1 (Respiratory syncytial virus, UniProt P03420 26-513); experiment: BLI, IgG on anti-human IgG sensor, 100 nM antigen

B1: ADI-41191 (antibody, V domains shown)
VH: QVQLVQSGAEVKRPGASVKVSCKASGYIFSHYGISWVRQAPGQGLEWMAWISAYNGNTNYAQKLQGRVTVTTDTSTSTAYMELRSLRSDDTAVYYCAREPPSLSAAATLDYWGQGTLVTVSS
VL: EIVMTQSPLSLPVTLGQPASISCRSNQSLVYSDGNIYLSWFQQRPGQSPRRLIYKVSNRDSGVPDRFSGSGSGTDFTLKISRVEAEDVAVYYCMQVTHWPHEFGQGTKLEIK
binding result [1]: no binding
Neutralization - RSV A2 IC50 (pM) [2]: 154 pM
neut IC50 (ug/ml) subtype A (wright) [2]: 0.071 µg/mL
Kd [3]: 0.5 nM

B2: ADI-36677 (antibody, V domains shown)
VH: QVQLVQSGGGLVQPGGSLRLSCAASGFTFSSYEMNWVRQAPGKGLEWISYISSSGDTKYYADSVKGRFTVSRDNAKYSLYLQMDSLRAEDTAVYYCASLYDSRGYYWVFDYWGQGTLVTVSS
VL: DIVMTQSPSSLSASVGDRVTITCQASQDISTYLNWYQHKPGKAPNLLIYDASNLEPGVPSRFSGSGSGTDFTFTISSLQPEDIATYYCLQHDNLPPTFGQGTKVDIK
binding result [1]: no binding
Neutralization - RSV A2 IC50 (pM) [2]: 144 pM
neut IC50 (ug/ml) subtype A (wright) [2]: 0.019 µg/mL
Kd [3]: 0.54 nM

B3: ADI-41256 (antibody, V domains shown)
VH: QVQLVQSGAEVKSPGSSATVSCKASGGTFGSYGISWVRQAPGQGLEWIGAIMPMFGTTNYAQKFQGRVTMTADESTSTVYMDVSSLRPDDTAVYYCVRDVFYDILTGYYDADYYHHYMDVWGKGTTVTVSS
VL: DIVMTQSPLSLPVTLGQPASISCRSGQSLVHSDGNTYLNWFQQRPGQSPRRLIYKVSNRGSGVPDRFSGSGSGTDFTLKISRVEAEDVGVYFCMQGTHWPRTFGQGTKVDIK
notes: also called Ab 578; Antibody Number 578
binding result [1]: no binding
Neutralization - RSV A2 IC50 (pM) [2]: 85.8 pM
neut IC50 (ug/ml) subtype A (wright) [2]: 0.019 µg/mL
Kd [3]: 0.35 nM

B4: ADI-41203 (antibody, V domains shown)
VH: QVQLVQSGAEVRKPGESLKISCKASGYRFTNYWIGWVRQMPGKGLEWMGVIYPGDSDTRYSPSFQGQVTMSADKSTNTAYLQWSSLKASDTAIYYCVSLYSDYDYGALDYWGQGTLVTVSS
VL: EIVMTQSPATLSVSPGERATLSCRASENVGRNLAWYQQKPGQAPRLLIYGASIRATGILARFSGSGSGTEYTLTISSLQSEDFAVYYCQQYHDWPSFTFGPGTKVDIK
binding result [1]: no binding
Neutralization - RSV A2 IC50 (pM) [2]: 23.9 pM
neut IC50 (ug/ml) subtype A (wright) [2]: 0.006 µg/mL
Kd [3]: 0.4 nM

B5: ADI-36672 (antibody, V domains shown)
VH: EVQLVESGGGLVKPGGSLRLSCAASGFAFNNYYMNWVRQAPGKGLEWVSSISSASTYTDYADSVKGRFTISRDNAKNSLYLHLNSLRAEDTAVYYCARDYYGSGNYYNPKPLDVWGQGTTVTVSS
VL: QPVLTQPPSVSGAPGQRVTISCTGSSSNIGAGYDVHWYRQFPGTAPELLIYGNTNRPSGVPDRFSGSKSGTSASLAITGLQAEDEADYYCQSYDSSLKGVFGGGTKLTVL
binding result [1]: no binding
Neutralization - RSV A2 IC50 (pM) [2]: 207 pM
neut IC50 (ug/ml) subtype A (wright) [2]: 0.018 µg/mL
Kd [3]: 0.7 nM

B6: ADI-41601 (antibody, V domains shown)
VH: EVQLLESGGGLVKPGGSLRLSCAGSGFRFSDYYMTWIRQAPGKGLEWVSYISSSSTYTYYTDSVKGRFTVSRDNAKNSLYLQMNTLRAEDTAIYYCAISNRYDSRTFYYDYWGQGTLVTVSS
VL: QSVLTQPPSVSGAPGQRVIISCTGSSSNIGAGYDVHWYQQFPGTAPKLLIYGNNNRPSGVPERFSGSKSGTSASLAITGLQADDEADYYCQSYDSLSEVVFGGGTKVTVL
notes: also called Ab 875; Antibody Number 875
Neutralization IC50 (RSV subtype A) (RSV F on RSV-A2 virus): > 25 µg/mL
binding result [4]: no binding (tested: 100 nM antigen)
Kd [5]: 0.503 nM

B7: ADI-41609 (antibody, V domains shown)
VH: QVQLVESGAEVKKPGASVKVSCKASGYSFTSYYMHWVRQAPGQGLEWMGVISTNGGTASYSQNFRGRVTLTRDTSTSTAYMELSSLTSEDTAVYYCVREGYCNGGSCSYFDSWGQGTLVTVSS
VL: QSVLTQPPSVSGAPGQRVSISCTGSSSNIGAGYDVHWYQQLPGTAPKVLIYGNNYRPSGVPDRFSGSKSGTSASLAITGLQTEDEADYYCQSYDSRLSVVFGGGTKLTVL
Neutralization IC50 (RSV subtype A) (RSV F on RSV-A2 virus): > 25 µg/mL
binding result [4]: no binding (tested: 100 nM antigen)
Kd [5]: 29.1 nM

B8: ADI-41208 (antibody, V domains shown)
VH: QVQLVESGGDLVKPGGSLRLSCAASGFTLSGHYMSWIRQPPGKGLEWVSSISGGSTYTNYADSVKGRFTISRDNAENSLYLQMNSLRAEDTAVYYCARLAYSDYGPFYFDLWGRGTLVTVSS
VL: QSVLTQPPSVSGAPGQRVTISCTGSSSNIGAGYDVHWYQQLTGTAPKLLIFDNNNRPSGVPDRFSGSKSGTSASLAITGLQAEDEADYYCQSYDSRLSAPYVFGTGTKLTVL
binding result [1]: no binding
Neutralization - RSV A2 IC50 (pM) [2]: 310 pM
neut IC50 (ug/ml) subtype A (wright) [2]: 0.077 µg/mL
Kd [3]: 0.48 nM

B9: ADI-36676 (antibody, V domains shown)
VH: EVQLLESGGGVVQPGRSLRLSCAASGFSFRNYDMHWVRQAPGKGLEWVAIISYDGSNKYADSVKGRFTISRDTSKNTLYLQMNSLRVEDTAVYYCARADSSGYYKGSEYFQHWGQGTLVTVSS
VL: SYELTQLPSVSVAPGQTARITCGGNNIGTKSVQWYQHKPGQAPVLVVYDDSDRPSDIPERFSGSNSGNTATLTISRVEAGDEADYYCQVWDSSSDHYVFGTGTKLTVL
notes: also called Ab 832; Antibody Number 832
binding result [1]: no binding
Neutralization - RSV A2 IC50 (pM) [2]: 130 pM
neut IC50 (ug/ml) subtype A (wright) [2]: 0.006 µg/mL
Kd [3]: 0.28 nM

B10: ADI-41259 (antibody, V domains shown)
VH: QVQLVESGGRLVKPGGSLRLSCAASGFTFSDFYMSWIRQAPGKGLEWVSYISSSGDDPNYADSVKGRFTISRDNSKNSLYLQMNSLRAEDTAVYYCARDEVGWNNLDYYFGMDVWGQGTTVTVSS
VL: DIVMTQSPLSLPVTLGQPASISCRSSQSLVHSDGNTYLSWFHQRPGQSPRRLIYKVSNRDSGVPNRFSGGGSGTDFTLKISRVEAEDVGFFYCMQGTHWQKTFGQGTKVEIK
binding result [1]: no binding
Neutralization - RSV A2 IC50 (pM) [2]: 122 pM
neut IC50 (ug/ml) subtype A (wright) [2]: 0.015 µg/mL
Kd [3]: 0.34 nM

B11: ADI-41274 (antibody, V domains shown)
VH: EVQLVESGGGLVKPGGSLRLSCAASGFSFSSYAMNWVRQAPGKGLQWVSSISAGSSYIDYADSVKGRFTISRDNAENSLFLQMNSLRVEDTAVYYCARVGSYTHGYEFDYWGQGTLVTVSS
VL: QPVLTQPPSVSGAPGQRVTISCTGSNSNIGAGYDVHWYQQLPGTAPKLLIYASTIRPSGVPDRFSGSKSGTSASLAITGLQAEDEADYYCQSYDRNLSVVFGGGTKVTVL
notes: also called Ab 592; Antibody Number 592
binding result [1]: no binding
Neutralization - RSV A2 IC50 (pM) [2]: 26.6 pM
neut IC50 (ug/ml) subtype A (wright) [2]: 0.109 µg/mL
Kd [3]: 0.48 nM

B12: ADI-36669 (antibody, V domains shown)
VH: EVQLVQSGAEVKKPGASVRVYCKASGYTFTTYYIHWVRQAPGQGLEWMGMINPSGGTTSYAQKFQGRLTMTGDTSTSTVYMELNYLRSEDTAVYYCTRDFIYFYGSGDGFDYWGQGTLVTVSS
VL: EIVMTQSPSAMSASVGDRVTITCRASQGISNYLAWFQQKPGKVPKRLIYAASSLQSGVPSRFSGSGSGTEFTLTITSLQPEDFATYYCLQHNSYPFTFGPGTKVEIK
binding result [1]: no binding
Neutralization - RSV A2 IC50 (pM) [2]: 111 pM
neut IC50 (ug/ml) subtype A (wright) [2]: 0.025 µg/mL
Kd [3]: 1.1 nM
